Assay results from PMC10139187, “Natural Isoforms of Listeria monocytogenes Virulence Factor Inlb Differ in c-Met Binding Efficiency and Differently Affect Uptake and Survival Listeria in Macrophage †” (International Journal of Molecular Sciences, 2023).

B1: idInlBCC9, internalin domain (receptor-binding domain) of InlB, isoform of clonal complex CC9 (lineage II) (domain or fragment)
chain: AKVQAETITVPTPIKQIFSDDAFAETIKDNLKKKSVTDAVTQNELNSIDQIIANNSDIKSVQGIQYLPNVTKLFLNGNKLTDIKPLANLKNLGWLFLDENKVKDLSSLKDLKKLKSLSLEHNGISDINGLVHLPQLESLYLGNNKITDITVLSRLTKLDTLSLEDNQISDIVPLAGLTKLQNLYLSKNHISDLRALAGLKNLDVLELFSQECLNKPINHQSNLVVPNTVKNTDGSLVTPEIISDDGDYEKPNVKWHLPEFTNEVSFIFYQPVTIGKAKARFHGRVTQPLKE
modifications: stained with RED-tris-NTA (on the His tag)
notes: 321 aa long; also called idInlB-His-Tag; source: E. coli BL21, purified (HisTrap FF Crude column, dialysed against PBS)

Assays:
Assay in all cases: MST; idInlB-His-Tag stained with RED-tris-NTA kept constant at 50 nM; unlabeled receptor in twofold dilutions from 0.076 nM to 2.5 uM; PBST (PBS with 0.05% Tween-20); Monolith NT.115, LED power 80%, MST power 40%; fitted to a 1:1 binding model; mean of three independent experiments
[1] = molecular target: idInlBCC7, internalin domain (receptor-binding domain) of InlB, isoform of clonal complex CC7 (lineage II) (Listeria monocytogenes)
[2] = molecular target: idInlBCC1, internalin domain (receptor-binding domain) of InlB, isoform of clonal complex CC1 (lineage I) (Listeria monocytogenes)
[3] = molecular target: B1; settings: both partners purified
[4] = molecular target: T1, chimeric protein HGFR/Fc (c-Met extracellular domain as part of a soluble chimera protein) (human, UniProt P08581 25-932); settings: both partners purified
T1 construct: Hepatocyte growth factor receptor (c-Met, HGFR), human, extracellular domain; natural c-Met is cut into an alpha and a beta chain, written here as one chain; also called human c-Met; source: bought: Sigma-Aldrich (H0536)
T1 sequence (P08581 25-932, change not shown): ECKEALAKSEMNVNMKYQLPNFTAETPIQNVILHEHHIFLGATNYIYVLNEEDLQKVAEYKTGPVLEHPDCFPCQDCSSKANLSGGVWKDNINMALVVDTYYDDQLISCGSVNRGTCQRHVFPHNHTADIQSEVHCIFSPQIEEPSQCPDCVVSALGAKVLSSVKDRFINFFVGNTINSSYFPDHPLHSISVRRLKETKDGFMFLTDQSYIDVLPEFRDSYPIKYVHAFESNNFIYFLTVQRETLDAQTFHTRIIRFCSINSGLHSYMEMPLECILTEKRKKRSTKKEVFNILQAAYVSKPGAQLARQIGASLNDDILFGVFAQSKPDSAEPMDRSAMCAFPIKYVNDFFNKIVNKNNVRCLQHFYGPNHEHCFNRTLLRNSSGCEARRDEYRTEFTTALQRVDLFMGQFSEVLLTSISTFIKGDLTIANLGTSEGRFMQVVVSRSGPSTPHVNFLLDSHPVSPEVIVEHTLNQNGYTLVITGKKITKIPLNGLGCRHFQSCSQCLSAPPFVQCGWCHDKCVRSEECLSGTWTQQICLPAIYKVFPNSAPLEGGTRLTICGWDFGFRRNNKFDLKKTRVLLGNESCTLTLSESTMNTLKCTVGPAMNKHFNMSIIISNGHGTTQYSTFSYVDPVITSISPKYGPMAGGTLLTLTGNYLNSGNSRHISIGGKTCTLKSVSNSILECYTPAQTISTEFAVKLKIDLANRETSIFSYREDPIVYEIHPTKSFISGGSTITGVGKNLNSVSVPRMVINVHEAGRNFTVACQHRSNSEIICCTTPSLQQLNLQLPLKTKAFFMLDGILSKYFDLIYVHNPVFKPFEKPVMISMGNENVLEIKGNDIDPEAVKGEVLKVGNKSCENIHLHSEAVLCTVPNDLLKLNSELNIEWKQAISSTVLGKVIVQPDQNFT

Row | Molecule | Kd [1] | Kd [2] | Kd [3] | Kd [4]
1 | chimeric protein HGFR/Fc (c-Met extracellular domain as part of a soluble chimera protein) (from UniProt P08581 25-932) (Fc fusion) | 58.7 nM | 7.4 nM |  | 
2 | gC1qR (human) (from UniProt Q07021 74-282) (receptor) | 10.2 nM | 7.4 nM |  | 
3 | gC1qR (human) (receptor, gC1qR (receptor of the globular heads of C1q), human; the catalogue number may tell them; also called human gC1qR; source: bought: Invitrogen (#11874H08E25)) LHTDGDKAFVDFLSDEIKEERKIQKHKTLPKMSGGWELELNGTEAKLVRKVAGEKITVTFNINNSIPPTFDGEEEPSQGQKVEEQEPELTSTPNFVVEVIKNDDGKKALVLDCHYPEDEVGQEDEAESDIFSIREVSFQSTGESEWKDTNYTLNTDSLDWALYDHLMDFLADRGVDNTFADELVELSTALEHQEYITFLEDLKSFVKSQ |  |  | 21.5 nM | 
4 | B1 |  |  |  | 93.6 nM
